This is an account of results in US20070161078A1.

The target of test [1] is MBP.NS1 H5N1B (ESEV) (influenza A H5N1) (UniProt Q6DP28). The test can be described thus: direct binding assay titration.
Test [2] has the same target. The test can be described thus: G assay titration.

Usually EC50 stands for the midpoint of the concentration-response curve. A lower EC50 goes with an effect from little substance. Take “INADL d8 (from UniProt Q8NI35 1431-1525)”: the EC50 worked out at 6.1 µg/mL in test [1] and 1.8 µg/mL in test [2].

Take “MAST2 d1 (from UniProt Q6P0Q8 1098-1197)”: the EC50 in test [2] is 0.9 µg/mL.

In the case of Magi3 d1 (from UniProt Q5TCQ9 18-106), the EC50 in test [1] worked out at 5 µg/mL; in test [2] it was 0.9 µg/mL. For “NeDLG d1,2 (from UniProt Q92796 124-316)”, the concentration for a half-maximal effect (EC50) was determined as 0.8 µg/mL in test [1] and 0.2 µg/mL in test [2].
